Measured values: patent US20250296959A1, “B7-H3 TARGETING PEPTIDES AND CONSTRUCTS THEREOF” (Mariana Oncology Inc., priority 2024, published 2025)
Like-named read-outs stand apart in the source and are kept apart here. Values belong to the molecule of their own block, whether it stands above or below them. Starred links: 1 amine or outer side, 2 acyl side, 3 side chain; linkers in the order of their positions; H or OH if unused. Positions of bridges follow the written chain, without caps; N, C: chain ends. Non-standard residues stand in square brackets, D forms with d. Residues, ends and D or L forms follow the SMILES beside them. Groups on a side chain read outwards from the residue. Primed or numbered codes have the meaning given here. *: point of attachment. (2S,3S)beta‑Me‑Phe = C[C@@H](c1ccccc1)[C@H](N[*:1])C(=O)[*:2]; (2S,3S)βMePhe = C[C@@H](c1ccccc1)[C@H](N[*:1])C(=O)[*:2]; DOTA = O=C(O)CN1CCN(CC(=O)O)CCN(CC(=O)*)CCN(CC(=O)O)CC1; PipAla = piperidinyl-alanine residue (as named); Trp(5-F) = N[C@@H](Cc1c[nH]c2ccc(F)cc12)C(=O)O; PEG4′ = 4x 3-(2-aminoethoxy)propanoic acid; γGlu = O=C(O)[C@H](CCC(=O)[*:2])N[*:1]; Ala(4-THP) = N[C@@H](CC1CCOCC1)C(=O)O; Val(3-OH) = CC(C)(O)[C@H](N)C(=O)O; Hyp = O=C(O)[C@@H]1C[C@@H](O)CN1; 4Pal = N[C@@H](Cc1ccncc1)C(=O)O; Tle = CC(C)(C)[C@H](N)C(=O)O; hLeu = CC(C)CC[C@H](N)C(=O)O; Pip = O=C(O)[C@@H]1CCCCN1; Nle = CCCC[C@H](N)C(=O)O

How the values were obtained:
Calu-6 cell line [1] = assay: Net internalization of [177Lu]Lu-labeled peptide in Calu-6 cells; format: cell-based, Human; conditions: 1 hour, 37° C., glycine pH 2.5 acid wash
How it was run: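 Peptide conjugate labeled with [177Lu]LuCl3 at pH ~5, 80 °C, 17–20 min, and purity checked by RP-HPLC. B7-H3-expressing human Calu-6 lung cancer cells at 5 million cells/mL in 1% PBSA. Internalized fraction: counts left after two 3 min 50 mM glycine pH 2.5 washes and NaOH lysis, gamma counted against bound fraction.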

human 4lg B7-H3 = target: T1, human 4lg B7-H3 (Homo sapiens, UniProt Q5ZPR3); assay: Affinity determination by surface plasmon resonance (SPR) to 4Ig B7-H3; conditions: 4Ig B7-H3
T1 sequence (Q5ZPR3 29-534): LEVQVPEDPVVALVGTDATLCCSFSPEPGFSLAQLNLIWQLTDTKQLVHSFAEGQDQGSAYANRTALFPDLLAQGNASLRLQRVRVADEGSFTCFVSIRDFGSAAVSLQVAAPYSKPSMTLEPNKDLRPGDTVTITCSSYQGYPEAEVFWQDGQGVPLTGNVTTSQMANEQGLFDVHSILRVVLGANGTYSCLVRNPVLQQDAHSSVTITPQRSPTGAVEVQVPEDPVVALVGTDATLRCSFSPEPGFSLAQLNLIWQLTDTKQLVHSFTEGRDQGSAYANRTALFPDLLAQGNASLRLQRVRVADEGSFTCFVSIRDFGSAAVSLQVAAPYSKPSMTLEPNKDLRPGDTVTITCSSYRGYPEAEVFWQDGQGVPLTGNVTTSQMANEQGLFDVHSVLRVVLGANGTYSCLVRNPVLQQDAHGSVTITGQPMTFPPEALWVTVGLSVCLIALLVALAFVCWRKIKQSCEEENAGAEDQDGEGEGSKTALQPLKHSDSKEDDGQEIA

Calu-6 cell line [2] = assay: Cell associated (bound) fraction of [177Lu]Lu-labeled peptide in Calu-6 cells; format: cell-based, Human; conditions: 1 hour, 37° C.
How it was run: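 Peptide conjugate was labelled with [177Lu]LuCl3 in ammonium acetate pH ~5 at 80 °C for 17-20 min, with purity checked by RP-HPLC. Calu-6 suspensions (5 million cells/mL in 1% PBSA) were incubated with 0.8 μCi for 1 h at 37 °C. Cell pellets were gamma-counted after two cold PBS/BSA washes, giving the bound fraction against the unbound supernatant plus washes.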

4lg-B7-H3 = target: T2, 4lg-B7-H3 (Homo sapiens, UniProt Q5ZPR3, S143D); assay: X-ray crystal structure of compound bound to 4lg-B7-H3
T2 sequence (Q5ZPR3 29-456 S143D): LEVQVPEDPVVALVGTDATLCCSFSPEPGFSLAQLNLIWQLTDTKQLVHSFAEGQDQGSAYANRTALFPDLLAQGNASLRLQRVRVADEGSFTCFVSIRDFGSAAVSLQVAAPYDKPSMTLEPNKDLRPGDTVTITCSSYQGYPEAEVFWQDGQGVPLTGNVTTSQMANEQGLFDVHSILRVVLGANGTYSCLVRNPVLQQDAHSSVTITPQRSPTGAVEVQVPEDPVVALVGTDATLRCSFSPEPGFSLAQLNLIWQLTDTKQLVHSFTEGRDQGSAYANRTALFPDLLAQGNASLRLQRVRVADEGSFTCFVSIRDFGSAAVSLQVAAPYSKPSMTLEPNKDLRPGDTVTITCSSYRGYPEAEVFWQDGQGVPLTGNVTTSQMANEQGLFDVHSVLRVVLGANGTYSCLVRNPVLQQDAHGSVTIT
Protocol: The x-ray crystal structure of an exemplary compound of the disclosure bound to 4lg-B7-H3 was determined. Suitable constructs for B^7H3 expression had been previously established by PROTEROS. Expression of B^7H3 was performed according to previously established protocols. A purification protocol was established and homogeneous protein was produced in preparative amounts. The protein was purified comprising affinity and gel filtration chromatography steps. This procedure yielded homogenous protein with a purity greater 95% as judged from Coomassie stained SDS-PAGE. A 4lg-B7-H3 sequence from amino acid 29-456 was employed. The following sequence corresponds to amino acids 1-534 of 4lg-B7-H3:
The purified protein was used in crystallization trials employing both, a standard screen with approximately 1200 different conditions, as well as crystallization conditions identified using literature data. Conditions initially obtained have been optimized using standard strategies, systematically varying parameters critically influencing crystallization, such as temperature, protein concentration, drop ratio, and others. These conditions were also refined by systematically varying pH or precipitant concentrations.
A cryo-protocol was established using PROTEROS Standard Protocols. Crystals have been flash-frozen and measured at a temperature of 100 K. The X-ray diffraction data have been collected from complex crystals of 4lg-B7-H3 with the ligand of Cpd #200 at the SWISS LIGHT SOURCE (SLS, Villigen, Switzerland) using cryogenic conditions. The crystals belong to space group P 61 2 2. Data were processed using the programs autoPROC, XDS and autoPROC, AIMLESS. […]
Subsequent model building and refinement was performed according to standard protocols with COOT and the software package CCP4, respectively. For the calculation of the free R-factor, a measure to cross-validate the correctness of the final model, about 4.8% of measured reflections were excluded from the refinement procedure (Table 27). […]

[3] = target: Biotinylated human 4Ig B7-H3 (human) (UniProt Q5ZPR3); assay: SPR 37C; A = KD<=1.0 nM
2Ig B7-H3 = 2Ig B7-H3 (UniProt Q5ZPR3); assay: SPR, 37C
[4] = target: T3, Biotinylated human 4Ig B7-H3 (human, UniProt Q5ZPR3 29-461, limits assumed, biotinylated (site not stated)); assay: SPR 25C; B = 1.0<KD<=10 nM
T3 construct: Protein captured on the SA chip for SPR; also called 4lg-B7-H3; B7-H3 isoform 4Ig
T3 sequence: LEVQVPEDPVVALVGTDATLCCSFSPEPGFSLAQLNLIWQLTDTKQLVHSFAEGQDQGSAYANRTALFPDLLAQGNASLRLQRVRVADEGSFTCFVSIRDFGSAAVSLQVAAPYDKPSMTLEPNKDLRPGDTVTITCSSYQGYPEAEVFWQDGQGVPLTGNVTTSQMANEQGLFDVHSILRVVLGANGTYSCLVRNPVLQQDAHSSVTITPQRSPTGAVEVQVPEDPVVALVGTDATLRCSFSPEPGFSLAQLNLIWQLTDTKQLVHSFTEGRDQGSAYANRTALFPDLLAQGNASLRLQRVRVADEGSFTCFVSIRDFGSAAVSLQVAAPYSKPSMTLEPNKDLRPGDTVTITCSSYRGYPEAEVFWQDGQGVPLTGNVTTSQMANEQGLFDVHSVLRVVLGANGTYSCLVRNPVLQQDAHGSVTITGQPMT

[5] = target: T3, Biotinylated human 4Ig B7-H3; assay: SPR 37C; B = 1.0<KD<=10 nM
[6] = target: T3, Biotinylated human 4Ig B7-H3; assay: SPR 37C; D = 100<KD<=300 nM
[7] = target: Biotinylated human 4Ig B7-H3 (human) (UniProt Q5ZPR3); assay: SPR 25C; A = KD<=1.0 nM
[8] = target: B7-H3 on Calu-6 cells (human) (UniProt Q5ZPR3); assay: 177Lu-labelled peptide on Calu-6 cells, % cell associated fraction; C = >50%
[9] = target: T3, Biotinylated human 4Ig B7-H3; assay: SPR 25C; C = 10<KD<=100 nM

KD [3]: < 1 nM
Kd (2Ig B7-H3): 520 nM
Molecule: Ac-[hLeu]YC[Tle]G[PipAla]K([PEG4′-DPTA])DVYC[Trp(5-F)][(2S,3S)beta‑Me‑Phe][Val(3-OH)][dA]-OH (disulfide 3-11 (inferred)) [Cpd 523]

KD [7]: < 1 nM
KD [3]: < 1 nM
% cell associated fraction [8]: > 50%
Molecule: Ac-[hLeu]YC[Tle]GK[Ala(4-THP)]DVYC[Trp(5-F)]F[Val(3-OH)][dK](DOTA)-OH (disulfide 3-11 (inferred)) [Cpd 303]

KD [3]: < 1 nM
% cell associated fraction [8]: > 50%
Kd (2Ig B7-H3): 370 nM
Molecule: Ac-[hLeu]YC[Tle]G[PipAla]([PEG4′-DOTA])[Ala(4-THP)]DVYC[Trp(5-F)][(2S,3S)βMePhe][Val(3-OH)][dA]-OH (disulfide 3-11 (inferred)) [Cpd 494]

KD [7]: < 1 nM
KD [3]: < 1 nM
% cell associated fraction [8]: > 50%
Molecule: Ac-[hLeu]YC[Tle]GK[Ala(4-THP)]DVYC[Trp(5-F)]F[Val(3-OH)][dK]([PEG4′-DOTA])-OH (disulfide 3-11 (inferred)) [Cpd 310]

KD [9]: 10 to 100 nM
Molecule: Ac-[hLeu]YCIGK(DOTA)[4Pal]DVYC[Trp(5-F)]F[Pip]-NH2 (disulfide 3-11) [Cpd 269]

KD [9]: 10 to 100 nM
Molecule: Ac-[hLeu]YCIGK(DOTA)[4Pal]DVYC[Trp(5-F)]F[Hyp]-NH2 (disulfide 3-11) [Cpd 267]

Further lines, the molecule ahead of its results:

Molecule: CC(=O)N[C@@H](CCC(C)C)C(=O)N[C@@H](Cc1ccc(O)cc1)C(=O)N[C@H]1CSSC[C@@H](C(=O)N[C@@H](Cc2c[nH]c3ccc(F)cc23)C(=O)N[C@@H](Cc2ccccc2)C(=O)N[C@H](C(=O)N[C@H](CCCCNC(=O)CN2CCN(CC(=O)O)CCN(CC(=O)O)CCN(CC(=O)O)CC2)C(N)=O)[C@@H](C)O)NC(=O)[C@H](Cc2ccc(O)cc2)NC(=O)[C@H](C(C)C)NC(=O)[C@H](CC(=O)O)NC(=O)[C@H](CC2CCOCC2)NC(=O)[C@H](CCCCN)NC(=O)CNC(=O)[C@H](C(C)C)NC1=O [compound 200, Ac-hLeu-Y-C-V-G-K-ThpA-D-V-Y-C-5FW-F-Thr-dLys(DOTA)-CONH2] (Ac-[hLeu]YCVGK[Ala(4-THP)]DVYC[Trp(5-F)]FT[dK](DOTA)-NH2; disulfide 3-11)
% net internalization (Calu-6 cell line [1]): A (%≤25)
Kd (human 4lg B7-H3; read-out: SPR KD—25° C., 25° C. flow cell temperature): < 1 nM
Kd (human 4lg B7-H3; read-out: SPR KD—37° C., 37° C. flow cell temperature): 1 to 10 nM
% cell associated fraction (Calu-6 cell line [2]): C (%>50)
Resolution [Å] (4lg-B7-H3; complex crystals of 4lg-B7-H3 with ligand, parenthesis = highest resolution bin): 2.98 (3.28-2.98) Å
specific hydrogen bonds to 4lg-B7-H3 (4lg-B7-H3; distance of less than 3.5 Å of donor and acceptor atoms): eleven
ligand binding site in 4lg-B7-H3 (4lg-B7-H3; extracellular domain residues 29-456): bound between the Ig-like C2-type 1 and Ig-like V-type 2 domains

Molecule: Ac-[Nle]YCVGKYDVYCWFT[dK](DOTA)-NH2 (disulfide 3-11) [Cpd 27]
KD [4]: 1 to 10 nM
KD [5]: 1 to 10 nM

B1: Cpd 36 (peptide)
peptide: Ac-[Nle]YCVGKYDVYCWF[γGlu][γGlu]-NH2
modifications: disulfide 3-11
SMILES: CCCC[C@H](NC(C)=O)C(=O)N[C@@H](Cc1ccc(O)cc1)C(=O)N[C@H]1CSSC[C@@H](C(=O)N[C@@H](Cc2c[nH]c3ccccc23)C(=O)N[C@@H](Cc2ccccc2)C(=O)N[C@@H](CCC(=O)N[C@@H](CCC(N)=O)C(=O)O)C(=O)O)NC(=O)[C@H](Cc2ccc(O)cc2)NC(=O)[C@H](C(C)C)NC(=O)[C@H](CC(=O)O)NC(=O)[C@H](Cc2ccc(O)cc2)NC(=O)[C@H](CCCCN)NC(=O)CNC(=O)[C@H](C(C)C)NC1=O
KD [6]: 100 to 300 nM

B2: Cpd 28 (peptide)
peptide: Ac-[Nle]YCVGKYDVYCWFT[dK](DOTA)-OH
modifications: disulfide 3-11
SMILES: CCCC[C@H](NC(C)=O)C(=O)N[C@@H](Cc1ccc(O)cc1)C(=O)N[C@H]1CSSC[C@@H](C(=O)N[C@@H](Cc2c[nH]c3ccccc23)C(=O)N[C@@H](Cc2ccccc2)C(=O)N[C@H](C(=O)N[C@H](CCCCNC(=O)CN2CCN(CC(=O)O)CCN(CC(=O)O)CCN(CC(=O)O)CC2)C(=O)O)[C@@H](C)O)NC(=O)[C@H](Cc2ccc(O)cc2)NC(=O)[C@H](C(C)C)NC(=O)[C@H](CC(=O)O)NC(=O)[C@H](Cc2ccc(O)cc2)NC(=O)[C@H](CCCCN)NC(=O)CNC(=O)[C@H](C(C)C)NC1=O
KD [4]: 1 to 10 nM
KD [5]: 1 to 10 nM
